Results on 98 sequences are retold here after the supplement of paper PMC6755084.

The subject of this data set is F1*sub RNA substrate (template-directed ligation). Nature of the data set: fraction ligated after 30 min (ligated reads / total reads); higher = more ligase activity; sequences stand for … in GAGACCGCAACTGAAAAGTTGT…AGTTCTGCACGTAGAAGCAAAAGGC
As to conditions: 42 °C. An outline of the steps: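 Oligo-pool templates of ligase ribozyme variants were PCR-amplified, T7-transcribed and gel-purified. Ligated and unligated bands were gel-separated, reverse transcribed with barcoded primers, and MiSeq-sequenced; core bases were filtered at quality ≥20. Fraction ligated per variant was ligated reads over total reads.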
On to TATACTGTCGTAAGACACTTTGGATGGTTGA [3d793], for which the fraction ligated came to 0.132.

Turning to TATACTTGTCGTAAGACACTTTGGAGGGTTA [3d943], the fraction ligated worked out at 0.00392.

Turning to “TATCCTTGTCGTAAGAACTTTGGATGGTTGA [3d1080]”, the fraction ligated is 0.0325.

Sequence ATCACTTGCGTAAGACACTTTGGTGGGTTGA [3d151] showed a fraction ligated of 0.0301.

For the sequence TTCACTTGTCGTAAGCCTTTGGATGGGTTGA [3d453], the fraction ligated amounted to 0.525.

Consider TATCCTTGTGTAAGACACTTTGGATGGGTTGA [2d93], for which the fraction ligated worked out at 0.792.

On to “TATCACTTGCGAAGACCTTTGGATGGGTTGA [3d1617]”, for which the fraction ligated was 0.779.

Regarding “TATCACTTTCGTAAGAACTTGGATGGGTTGA [3d1540]”, the fraction ligated amounted to 0.829.

Sequence TTCACTTGTCGTAAACACTTTGGAGGGTTGA [3d448] displayed a fraction ligated of 0.0223.

In the case of “TATCACTTGCGTAAGACACTTTATGGGTTGA [3d1688]”, the fraction ligated came to 0.12.

For the sequence “TATCACTTGTGTAAGAACTTTGGATGGGTTG [3d1771]”, the fraction ligated stood at 0.85.

Turning to “TATCATTGTCGTAAGACACTTTGGAGGTTGA [3d1286]”, the fraction ligated was 0.0106.

In turn, “TATCACTGGTAAGACACTTTGGATGGGTTGA [3d1327]” displayed a fraction ligated of 0.828.

In turn, TATACTTGCGTAAGACACTTTGATGGGTTGA [3d822] registered a fraction ligated of 0.285.

For TTCACTTTCGTAAGACACTTTGGATGGGTTGA [2d29], the fraction ligated was 0.501.

Regarding TACACTTGTGTAAGACATTTGGATGGGTTGA [3d624], the fraction ligated was 0.392.

With “TATCACTTGTCTAGACACTTTGGTGGGTTGA [3d1831]”, the fraction ligated was 0.195.

With TTCACTTGTCGTAAGACACTTTGGATGGGTTA [2d45], the fraction ligated came out at 0.619.

For the sequence “TATCATTGTCGAGACACTTTGGATGGGTTGA [3d1201]”, the fraction ligated came to 0.783.

Take TATACTTGTCGTAAGACACTTGGATGGGTTG [3d931]: the fraction ligated worked out at 0.756.

Consider “TATCACTTGTCTAAGAACTTTGATGGGTTGA [3d1858]”, for which the fraction ligated worked out at 0.777.

TAACTTGTCGTAAGACACTTTGGAGGGTTGA [3d524]: the fraction ligated came out at 0.0881.

In the case of TACACTTGTGTAAGCACTTTGGATGGGTTGA [3d621], the fraction ligated amounted to 0.101.

“TATCACTTGTGTAAGCACTTTGGAGGGTTGA [3d1760]” showed a fraction ligated of 0.121.

The sequence “TATCACTTTCGTAAGCACTTTGGTGGGTTGA [3d1534]” gave a fraction ligated of 0.0496.

“TATCATTGTCGTAAGAACTTTGGTGGGTTGA [3d1250]” came in with a fraction ligated of 0.0672.

Regarding TTACTTGTCGTAAGACACTTGGATGGGTTGA [3d291], the fraction ligated came out at 0.305.

“TATCACTTGTGTAAGACACTTTGGTGGTTGA [3d1800]” gave a fraction ligated of 0.0267.

In turn, ATCACTGTCGTAAGACACTTTGGATGGGTTA [3d122] had a fraction ligated of 0.298.

As to TACACTTGTCGAGACACTTTGGATGGGTTGA [3d646], the fraction ligated is 0.195.

The sequence “TATCACTTGTCGTAAGACACTTGGAGGGTTGA [2d279]” yielded a fraction ligated of 0.0154.

ATCACTTGTCGTAAGAACTTTGGATGGGTTGA [2d15]: the fraction ligated was determined as 0.821.

ATCCTTGTCGTAAGACACTTTGGATGGGTTGA [2d4] returned a fraction ligated of 0.744.

With “TATCACTTGCTAAGACACTTTGGATGGGTTG [3d1612]”, the fraction ligated worked out at 0.8.

TATCCTTGCGTAAGACACTTTGGATGGGTTA [3d998]: the fraction ligated was 0.403.

For the sequence ATCACTTGCGTAAGAACTTTGGATGGGTTGA [3d146], the fraction ligated came out at 0.835.

TATACTTGTCGAAGACACTTTGGATGGTTGA [3d867] registered a fraction ligated of 0.0528.

ATCACTGTCGTAAGACACTTGGATGGGTTGA [3d117] showed a fraction ligated of 0.743.

Turning to “TATCACTTGTCGTAAGACCTTTGATGGGTTG [3d2195]”, the fraction ligated is 0.513.

Sequence “TATCACTGTCGTAAACACTTGGATGGGTTGA [3d1401]” returned a fraction ligated of 0.794.

In turn, “TATCACTGTCGTAAACACTTTGATGGGTTGA [3d1402]” showed a fraction ligated of 0.669.

As to ATACTGTCGTAAGACACTTTGGATGGGTTGA [3d48], the fraction ligated came out at 0.361.

As to “TATCACTTGTCGTAGACACTGGATGGGTTGA [3d2035]”, the fraction ligated was determined as 0.778.

Consider TATCCTTGGTAAGACACTTTGGATGGGTTGA [3d984], for which the fraction ligated was found to be 0.796.

The sequence “TATCCTTGTCTAAGACACTTTGATGGGTTGA [3d1023]” yielded a fraction ligated of 0.748.

“TATCACTTGTCGTAAGACACTGGATGGGTTGA [2d276]” came in with a fraction ligated of 0.776.

With ATACTTGTCGTAAGACACTTTGATGGGTTGA [3d61], the fraction ligated is 0.291.

As to “TATCACTTGGAAGACACTTTGGATGGGTTGA [3d1585]”, the fraction ligated is 0.823.

Sequence “TATCACTTTCTAAGCACTTTGGATGGGTTGA [3d1482]” registered a fraction ligated of 0.788.

Regarding “TATCACTGTCGTAAGAACTTTGGATGGGTTA [3d1424]”, the fraction ligated was found to be 0.851.

Sequence “TATCACTTGTCGTAAGACCTTGATGGGTTGA [3d2184]” yielded a fraction ligated of 0.766.

“TATCACTTGTCGTAAGACATTTGAGGGTTGA [3d2216]” yielded a fraction ligated of 0.00411.

TACACTTGTGTAAGACACTTTGGATGGGTTG [3d631] showed a fraction ligated of 0.145.

Consider TACCTTGTCGTAAGACACTTTGATGGGTTGA [3d541], for which the fraction ligated is 0.304.

In turn, “TATCACTTGCGTAAACACTTTGGATGGGTTG [3d1648]” gave a fraction ligated of 0.795.

With TATACTTTGTAAGACACTTTGGATGGGTTGA [3d796], the fraction ligated was 0.74.

The sequence “TATCACTTGCGTAAGAACTTGGATGGGTTGA [3d1660]” registered a fraction ligated of 0.827.

The sequence “TATCACTTGTGTAAGACATTTGATGGGTTGA [3d1780]” showed a fraction ligated of 0.494.

“TATCACTGTGTAAGACATTTGGATGGGTTGA [3d1350]”: the fraction ligated is 0.849.

As for TATACTTGTCGTAAGACACTTTGAGGGTTGA [3d934], the fraction ligated came to 0.0304.

“TATCACTTGTCAGACACTTTGGATGGGTTGA [3d1810]” returned a fraction ligated of 0.824.

The sequence “TATCATTGTCGTAAGACACTTTGGATGGGTT [3d1291]” showed a fraction ligated of 0.0919.

“TATCACTTTCGTAAGACATTTGGATGGTTGA [3d1558]” displayed a fraction ligated of 0.286.

The sequence “TATCATGTCGTAAGACACTTTGGTGGGTTGA [3d1135]” returned a fraction ligated of 0.523.

For TACACTTGTCGTAAACCTTTGGATGGGTTGA [3d673], the fraction ligated worked out at 0.0569.

Sequence “TATCACTTTGTAAGCACTTTGGATGGGTTGA [3d1468]” yielded a fraction ligated of 0.783.

For ATCACTTGTCGTAAGACACTTTGGAGGGTTG [3d272], the fraction ligated worked out at 0.094.

For the sequence “TATCACTTGCGAAGACACTTGGATGGGTTGA [3d1619]”, the fraction ligated amounted to 0.785.

TACATTGTCGTAAGCACTTTGGATGGGTTGA [3d555] yielded a fraction ligated of 0.041.

“TATCCTTGTCGTAAGACCTTTGGTGGGTTGA [3d1085]” gave a fraction ligated of 0.212.

The sequence ATCACTTGTCGTAAGACCTTTGGAGGGTTGA [3d242] registered a fraction ligated of 0.04.

For TACACTTGTCGAAGACACTTGGATGGGTTGA [3d652], the fraction ligated is 0.109.

In turn, TATATTGTCGTAAGACACTTTGATGGGTTGA [3d771] yielded a fraction ligated of 0.288.

Regarding TACACTTGTCGTAAGCACTTTGGATGGGTTA [3d690], the fraction ligated was found to be 0.0198.

“TATCACTTGTCGAAGACACTTTGGATGGGTT [3d1979]” returned a fraction ligated of 0.763.

The sequence “TATCCTTGTCGTAAGACCTTTGGATGGGTTG [3d1089]” gave a fraction ligated of 0.762.

As for “TATCACTTGTCGTAAGCATTTGGATGGGTTGA [2d246]”, the fraction ligated was 0.849.

As to ATCACTGTCGTAAACACTTTGGATGGGTTGA [3d112], the fraction ligated came out at 0.747.

Sequence TATATTGTCGTAAGACACTTTGGATGGTTGA [3d774] showed a fraction ligated of 0.0779.

In turn, “TATCACTTGTCGTAAGACCTTTGGATGGTTGA [2d266]” came in with a fraction ligated of 0.285.

On to TACACTGTCGTAAGACACTTTGGAGGGTTGA [3d581], for which the fraction ligated was determined as 0.292.

ATCACTTGTCTAAGACACTTTGGATGGGTTGA [2d10] showed a fraction ligated of 0.765.

“TATCACTTGCGTAAGCACTTTGGATGGTTGA [3d1656]”: the fraction ligated came out at 0.705.

“TATCCTTGTCGTAAGAACTTTGGAGGGTTGA [3d1079]” returned a fraction ligated of 0.00912.

As to TATACTTGTCGAAGACACTTTGATGGGTTGA [3d864], the fraction ligated was 0.755.

In turn, TATACTTGCGTAGACACTTTGGATGGGTTGA [3d815] had a fraction ligated of 0.435.

TACCTTGTCTAAGACACTTTGGATGGGTTGA [3d532] registered a fraction ligated of 0.685.

For the sequence “TATCACTTGTCTAAGACACTTTGGATGGGTTA [2d206]”, the fraction ligated is 0.803.

Regarding TATCCTTTCGTAAGACACTTGGATGGGTTGA [3d977], the fraction ligated came to 0.76.

On to “TATCACTTGTCGTAGACACTTTGGAGGGTTGA [2d230]”, for which the fraction ligated turned out to be 0.167.

TATCATTGTCGTAAGACACTTTGGATGGGTTGA [1d6]: the fraction ligated is 0.796.

Consider “TATCACTTGTCGTAAGACCTTTGGGGGTTGA [3d2196]”, for which the fraction ligated came out at 0.0519.

“TATCATGTCGTAAGACACTTGGATGGGTTGA [3d1133]”: the fraction ligated stood at 0.776.

With TTCACTTGTGTAAGACACTTTGGATGGTTGA [3d399], the fraction ligated worked out at 0.284.

Sequence TACACTTGTCGTAAGACACTTTATGGGTTGA [3d721] gave a fraction ligated of 0.0103.

As for “TATCACTTGTCGTAAGACATTTGGGGGTTGA [3d2220]”, the fraction ligated came to 0.0157.

The sequence TTACTTGTCGAAGACACTTTGGATGGGTTGA [3d284] had a fraction ligated of 0.131.

In turn, “TATCACTTCGTAAGACACTTTGGATGGGTTA [3d1325]” displayed a fraction ligated of 0.706.
